Columns and labels:
[1] = molecular target: NJAK2 (N-terminal portion of JAK2) (Homo sapiens, UniProt O60674); experiment: SPA: binding of 3H-NJAK2 (N-terminal JAK2) to βc peptides on streptavidin-coated beads; conditions: less than saturating peptide, 40 pmole per reaction, FIG. 12B
Protocol: (§1) Three different labeling reactions were done using ^3 H-N-succinimidyl propionate (^3 H-NSP, Amersham Life Sciences, Arlington Heights, Ill.). One reaction was done using 0.5 mg of purified JAK2 in 0.1 M borate buffer, pH 8.5, with a reaction volume of 150 μl and an incubation time of one hour on ice with dried 1 mCi of ^3 H-NSP (toluene was removed using a stream of nitrogen). […] Another reaction was done using the buffer 0.1 M sodium phosphate, pH 8.0, and a similar volume as before. One milligram of JAK2 in 1.2 ml of phosphate buffer was incubated for three hours on ice. […] A third reaction was done using 2.5 mg of purified JAK2 in 0.1 m sodium phosphate, pH 8.0, and 2.5 ml volume. It was incubated with 5 mCi of dried ^3 H-NSP on ice for 2 hours. […] All three products were separated from unincorporated label using PD-10 columns (Pharmacia Biotech, Uppsala, Sweden) pre-equilibrated with 20 mM Tris, pH 8.0, 0.15 M NaCl.
(§2) Triplicate reactions were done for each data point. The buffer used in all the assays was 35 mM sodium phosphate, 150 mM NaCl, pH 8.0, 10% glycerol. Biotinylated peptides were allowed to bind to streptavidin-coated SPA beads (Amersham Life Sciences, Arlington Heights, Ill., catalog # RPNQ0006) with either less than saturating peptide or excess peptide. […] Under less than saturating conditions, beads and 40 pmole peptide were added to the assay plate well and incubated for one hour with gentle shaking on a Titer plate shaker (Lab-Line Instruments, Inc., Melrose Park, Ill.) at 600 rpm and not washed. […] The plates were then read on a MicroBeta (Wallac) set to read scintillation due to tritium.
(§3) Either ^3 H-JAK2 or ^3 H-NJAK2 was added to the wells and, after incubation, the signals measured. […] A competition reaction was also done by adding 5 to 10-fold excess unlabeled JAK2 in those reactions.

JAK2 [2] = molecular target: T1, JAK2 (Homo sapiens, UniProt O60674); experiment: ELISA binding of JAK2 to immobilized βc peptides; parameters: Y918N clone error corrected to Tyr
T1 sequence (O60674 3-1132): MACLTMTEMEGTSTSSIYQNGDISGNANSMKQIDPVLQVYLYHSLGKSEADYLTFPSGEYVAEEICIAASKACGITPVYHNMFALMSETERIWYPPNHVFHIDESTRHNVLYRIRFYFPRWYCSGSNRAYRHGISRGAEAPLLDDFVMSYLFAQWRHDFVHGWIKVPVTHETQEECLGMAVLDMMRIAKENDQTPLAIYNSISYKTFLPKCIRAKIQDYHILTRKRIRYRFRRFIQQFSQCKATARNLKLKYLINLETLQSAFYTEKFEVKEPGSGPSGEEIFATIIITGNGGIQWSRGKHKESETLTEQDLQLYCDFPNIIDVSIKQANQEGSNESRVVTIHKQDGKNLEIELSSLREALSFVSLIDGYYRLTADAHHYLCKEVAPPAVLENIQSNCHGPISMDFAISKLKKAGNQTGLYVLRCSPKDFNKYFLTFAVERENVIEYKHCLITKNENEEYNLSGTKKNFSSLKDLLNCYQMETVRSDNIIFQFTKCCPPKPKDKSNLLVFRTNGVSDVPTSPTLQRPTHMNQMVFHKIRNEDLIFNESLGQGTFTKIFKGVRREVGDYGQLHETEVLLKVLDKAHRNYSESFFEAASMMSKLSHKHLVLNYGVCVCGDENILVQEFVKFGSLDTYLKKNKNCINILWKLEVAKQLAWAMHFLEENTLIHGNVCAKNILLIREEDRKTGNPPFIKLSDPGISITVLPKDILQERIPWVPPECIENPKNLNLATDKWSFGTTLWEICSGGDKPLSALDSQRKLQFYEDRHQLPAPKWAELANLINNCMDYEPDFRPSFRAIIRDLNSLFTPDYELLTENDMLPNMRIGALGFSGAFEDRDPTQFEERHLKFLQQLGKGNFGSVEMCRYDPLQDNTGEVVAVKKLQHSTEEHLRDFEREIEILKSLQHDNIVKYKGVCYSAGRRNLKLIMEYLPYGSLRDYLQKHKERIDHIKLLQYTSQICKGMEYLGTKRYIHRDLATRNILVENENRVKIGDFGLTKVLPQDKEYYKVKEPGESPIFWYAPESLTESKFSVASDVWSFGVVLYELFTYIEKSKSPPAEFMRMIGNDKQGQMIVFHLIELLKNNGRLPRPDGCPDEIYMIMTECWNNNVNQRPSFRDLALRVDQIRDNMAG
Protocol: βc peptides corresponding to the proposed JAK2 binding domain (Table 1) were serially diluted and bound 16 hours at room temperature to streptavidin coated 96-well plates (Boehringer-Mannheim, Indianapolis, Ind.) and blocked at 37° with 1% fetal bovine serum in PBS. JAK2 protein was serially diluted on the plate and allowed to bind for 1 hour at room temperature. Plates were washed between incubations with ELISA wash (PBS with 0.04% TWEEN 20). Detection was via anti-FLAG antibody (10 μg/ml, Kodak, New Haven, Conn.) followed by anti-mouse Ig conjugated to peroxidase (1:5000 dilution, Boehringer Mannheim) and 1 mg/ml 2,2'-azinobis(3-ethylbenzthiazolinesulfonic acid) (Sigma), 0.003% H2 O2, 28 mM citric acid, 44 mM Na2 HPO4.
The ELISA assay worked best when the biotinylated βc peptides were immobilized on a streptavidin 96-well plate and the JAK2 was allowed to bind. A dual titration of βc peptides vs. JAK2 was performed (FIG. 24). Peptide 1 [SEQ ID NO:11] (FIG. 24 A) and peptide 2 [SEQ ID NO:12] […] Because 0.4 μM peptide was calculated to saturate the number of biotin binding sites in each well, it was expected that the amount of JAK2 binding should saturate at this quantity of peptide. […] (FIGS. 24 C and D) but peptides 5 and 6 [SEQ ID NOS:15 and 16]

JAK2 [3] = molecular target: T1, JAK2; experiment: SPA: binding of 3H-JAK2 to βc peptides on streptavidin-coated beads; parameters: NJAK2 = N-terminal 294 residues
Protocol: Cells were lysed by dounce homogenization (20 strokes) in 1X phosphate buffered saline (PBS), pH 7.5 at 4 C. […] For some experiments, the JAK2 protein (0.15 mg/ml), aliquoted into 7 equivalent tubes, was then subjected to ultracentrifugation in an Airfuge using an A-110 rotor at an average of 164,000×g for a period of 6 hours at ambient temperature. At zero time, and at each subsequent hour thereafter, a tube of JAK2 was removed for analyses (ELISA, SDS polyacrylamide gel electrophoresis, and Western blotting).
as §1, §2, §3

NJAK2 (N-terminal portion of JAK2), sequence (O60674 1-294 S277G): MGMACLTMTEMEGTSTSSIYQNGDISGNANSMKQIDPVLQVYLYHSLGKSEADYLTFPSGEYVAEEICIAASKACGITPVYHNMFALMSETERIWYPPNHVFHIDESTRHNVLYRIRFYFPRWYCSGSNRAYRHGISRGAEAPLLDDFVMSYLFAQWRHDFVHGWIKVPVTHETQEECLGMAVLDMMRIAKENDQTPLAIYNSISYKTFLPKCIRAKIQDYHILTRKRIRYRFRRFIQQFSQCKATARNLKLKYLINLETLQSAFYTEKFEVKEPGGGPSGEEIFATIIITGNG

suitability for the ELISA (JAK2 [2]): appear optimal | binding in the SPA, comparison of peptides (JAK2 [3]): binds better than peptide 3 | suitability in the SPA (JAK2 [3]): two most optimal | signal-to-noise ratio (JAK2 [3]; 40 pmole (0.17 μg) peptide per reaction, without optimization): 4.5 | signal to noise ratio (JAK2 [3]; 5.5 nM JAK2, κ-casein present, FIG. 17B): 14 | signal-to-noise ratio (JAK2 [3]; BSA 0.1 mg/ml or 0.5 mg/ml (either concentration), FIG. 16): 5 | signal-to-noise ratio (JAK2 [3]; BSA experiment, no additions, FIG. 16): 4 | amount of JAK2 at which binding reaches saturation (JAK2 [3]; binding curve, peptide 4, FIG. 17A): about 40 pmole | apparent Kd (JAK2 [3]; binding curve, varying labeled JAK2, FIG. 17A): very low apparent Kd | signal-to-noise ratio (JAK2 [3]; excess peptide, no κ-casein, FIG. 15): 10 | signal-to-noise ratio (JAK2 [3]; excess peptide, κ-casein 1 mg/ml during peptide binding to beads, FIG. 15): 35 | strength of binding (linear increase with JAK2) (JAK2 [3]; less than saturating JAK2, FIG. 17B): very strong | activity profile, peptide and labeled JAK2 mixed prior to adding beads (JAK2 [3]; mixed one hour before beads, FIG. 13): same activity profile
Sequence: GIYGYRLRRKWEEKIPNPSKSHLFQNGSAELWP [peptide 4, βc peptide, N-terminal truncation]
activity profile in binding 3H-NJAK2 (signal) [1]: peptide 4>peptide 3>peptide 5>peptide 6>peptides 1 and 2 | activity profile in binding 3H-JAK2 (signal) (JAK2 [3]; less than saturating peptide, 40 pmole per reaction, 3H-JAK2, FIG. 12A): peptide 4>peptide 3>peptide 5>peptide 6>peptides 1 and 2 | overall signals and signal-to-noise ratios, peptide and labeled JAK2 mixed prior to adding beads (JAK2 [3]; mixed one hour before beads, versus peptide bound to bead first, FIG. 13): lower overall signals and signal-to-noise ratios

Source: patent US6187552A, “Method for identifying inhibitors of JAK2/cytokine receptor binding” (Pharmacia & Upjohn Company, priority 1998, dated 2001)
